Patent US20170304566A1 (Ablynx, published 2017)

Target: F protein (fusion glycoprotein) of hRSV, Memphis 37 strain (human respiratory syncytial virus, …)
Assay: cell-based or functional assay

B1: SEQ ID NO: 71 (RSV434), trivalent polypeptide consisting of three anti-hRSV immunoglobulin single variable domains (VHH)
chain: DVQLVESGGGLVQAGGSLSISCAASGGSLSNYVLGWFRQAPGKEREFVAAINWRGDITIGPPNVEGRFTISRDNAKNTGYLQMNSLAPDDTAVYYCGAGTPLNPGAYIYDWSYDYWGRGTQVTVSSGGGGSGGGGSGGGGSEVQLVESGGGLVQAGGSLSISCAASGGSLSNYVLGWFRQAPGKEREFVAAINWRGDITIGPPNVEGRFTISRDNAKNTGYLQMNSLAPDDTAVYYCGAGTPLNPGAYIYDWSYDYWGRGTQVTVSSGGGGSGGGGSGGGGSEVQLVESGGGLVQAGGSLSISCAASGGSLSNYVLGWFRQAPGKEREFVAAINWRGDITIGPPNVEGRFTISRDNAKNTGYLQMNSLAPDDTAVYYCGAGTPLNPGAYIYDWSYDYWGRGTQVTVSS
In the case of B1, the “sensitivity in in vitro neutralization relative to RSV-B 18537” value is reported as about 6 fold.
